Reference: patent publication US20110059015A1, “VACCINE” (priority 2002, published 2011)

Key:
[1] = test system: HIV-1 MN strain; test: Neutralisation plaque assay (NPA) in MT-4 cells; type: cell-based
Description: A neutralisation plaque assay (NPA) was established in MT-4 cells (Harada, et al., 1985) with minor modifications (Sánchez, et al., 1993). Six-well plates (Costar, Calif.) were incubated with 1 ml of poly-L-lysine (50 μg/ml, Sigma) for 60 min at room temperature and washed three times in phosphate-buffered saline (PBS, pH 7). MT-4 cells (4×10^6/well) were added and incubated 2 h, after which unbound cells were removed. Neutralisation was performed with 100 plaque-forming units (pfu) of virus and five purified Fabs (S20, S19, S8, M02 and M025) at different concentrations. The virus-antibody mixture was incubated (37° C., 3 h), slowly added to the plates and adsorbed (37° C., 90 min), after which virus was removed and 2 ml of agarose medium (0.2% SeaPlaque agarose in complete RPMI medium) were added. Plates were incubated (37° C., 5% CO2 atmosphere), and 2 ml of agarose medium were added on day 3. Plaque production was counted with the naked eye on day 7. Neutralisation titer was calculated according to the formula % neutralisation=(1−p/n)×100, where p is the amount of virus produced in presence of the corresponding Fab, n is the mean amount of virus produced without Fab, measured by number of plaques in cultures.

[2] = test system: HIV-1 RF; test: Infectivity reduction assay (IRA) in MT-2 cells, RF; type: cell-based; settings: Fab 10 μg/ml
Description: (§1) The infectivity reduction assay (IRA) was performed using in MT-2 cells. Virus titer of LAI, SF-2, MN and RF strains was determined in MT-2 cells and expressed as TCID50 (50% tissue culture infective doses), calculated by the Spearman-Karber formula. Five 10-fold virus dilutions were mixed with different concentrations of Fabs S20, S19, S8, M02 and M025 and incubated (37° C., 1 h, 5% CO2), then added to a 96-well microtiter plate containing 10^5 MT-2 cells/well. Fresh medium (100 μl) was added 4 days later. Cytopathic effect (CPE), characterised by the appearance of giant multinuclear cells, was quantified on day 7. Six replicate wells were made for each dilution. Neutralisation was calculated by the formula % neutralisation=(1−p/n)×100, where p is the mean titer in TCID50/ml of virus produced in cultures incubated with the correspondent mixture and n is the mean titer of virus produced in cultures incubated without Fabs. Each titer point is the mean of two individual experiments.

[3] = test system: HIV-1 R5 (Bal); test: p24 quantification after PBMC infection, R5 strain; type: cell-based; settings: p24 on day 7
Description: (§2) Excess virus and Fab were removed by washing, and PBMC incubated in complete RPMI 1640 at 37° C. Every two days after infection, half the culture supernatant (500 μl) was removed and replaced with fresh medium containing rhIL-2 and Fabs at the above concentration. Cell-free supernatants were tested for HIV-1 p24 antigen on day 7 using a commercial ELISA test (Coulter, Miami, Fla.). The percentage of neutralisation was calculated as the ratio between p24 levels for test samples a lone or with Fabs. Irrelevant HmFab P1 (10 μg/ml) was used as a negative control.

[4] = test system: HIV-1 X4 (NL4-3); test: p24 quantification after PBMC infection, X4 strain; type: cell-based; settings: NL4-3, PBMC, p24 on day 7
Description: as §2

[5] = test system: HIV-1 LAI strain; test: Infectivity reduction assay (IRA) in MT-2 cells, LAI; type: cell-based; settings: Fab 10 μg/ml
Description: as §1

[6] = test system: HIV-1 MN; test: Infectivity reduction assay (IRA) in MT-2 cells, MN; type: cell-based; settings: Fab 10 μg/ml
Description: as §1

[7] = target: gp120 III-B (Human immunodeficiency virus type 1 group M subtype B, UniProt P04578); settings: donor serum 1/200, Fab 0.01-30 μg/ml
[8] = test system: HIV-1 SF-2; test: Infectivity reduction assay (IRA) in MT-2 cells, SF-2; type: cell-based; settings: Fab 10 μg/ml, SF-2, MT-2 cells
Description: as §1

[9] = test system: donor virus isolate (LTNP HIV-1); test: IRA in PBMC with donor virus isolate; type: cell-based; settings: Fab 25 μg/ml
Description: PBMC obtained from the patient in 1996 were cocultured with HIV-1-seronegative PBMC which had been stimulated for 3 days with phytohemagglutinin (PHA). Coculture was maintained in medium with interleukin-2 (IL-2) for at least 40 days (37° C., 5% CO2). Fresh PBMC were added each week and p24 antigen production was monitored every 7 days. Supernatant was harvested and characterised by TCID50% on stimulated PBMC. Supernatant (1 ml) from the coculture (1.3×10^3 TCID50%) was inoculated in 10×10^6 PBMC. After incubation (1 h, 37° C.), cells were centrifugated and 10 ml of RPMI with […] were added. Virus was grown and harvested. This first-passage virus stock was used to perform the IRA in PBMC. […] Medium with IL-2 was changed twice a week. After 14 days, the p24 assay was performed and TCID50% calculated. Neutralisation titer was calculated according to the formula given above.

[10] = test system: HIV-1 Bal; test: In vivo neutralisation of HIV-1 Bal infection in SCID-hu-PBMC mice; settings: Fab 100 μg i.p. x3
Excerpt: (A) Neutralisation of the HIV-1 MN strain by IgM Fabs M02 and M025 and IgG Fabs S8, S19 and S20 determined by plaque assay (NPA) in MT-4 cells. […] SCID mice grafted with adult human PBMC (SCID-hu-PBMC) sensitive to HIV-1 infection were infected 2 weeks after reconstitution with cell-free HIV-1 Bal stocks containing 100 TCID50. […] Peritoneal cells were recovered after 15 days and co-cultured with PHA-activated PBMC from HIV-1-seronegative individuals. Co-cultures were monitored in ELISA for HIV-1 core antigen in supernatant at days 7 (left) and 14 (right), and were considered positive when p24 was >30 ng/ml.
CB.17 SCID/SCID mice were bred and maintained under specific pathogen-free conditions in the Centro Nacional de Biotecnologia animal facility. Eight- to 10-week-old non-leaky phenotype mice were reconstituted by i.p. injection of 20×10^6 freshly isolated normal human PBMC. […] Mice were infected 2 weeks after PBMC reconstitution by i.p. injection of 0.5 ml of diluted cell-free HIV-1 Bal stocks containing 100 TCID50. Two weeks after viral challenge, mice were killed by cervical dislocation and peritoneal cells obtained by washing with ice cold PBS. […] Co-cultures were monitored by ELISA for HIV-1 core antigen in supernatant on days 7 and 14, and were considered positive when p24 was >30 ng/ml.

B1: Fab S8: human IgG1 anti-gp120 Fab from LTNP donor; light chain SEQ ID 2, heavy chain SEQ ID 4 (antibody, listed as Homo sapiens)
heavy: LESGGGLVKPGGSLRLSCAASGFTFSSYAMHWVRQAPGKGLEWVAFIWFDGSNERYADSVKGRFTITRDNPKNTLYLQMNSLRVEDTAVYYCVRRGGSILTGFHLDYWGQGTLVTVSSASTKGPSVFPLAPSSKSTSGGTAALGCLVKDYFPEPVTVSWNSGALTSGVHTFPAVLQSSGLYSLSSVVTVPSSSLGTQTYICNVNHKPSNTKVDKRVEPKSCDKTS
light: ELTQSPSSLSASVGDRVTITCRASQGIRDDLGWYQQKPGKAPKRLIYAASNLQSGVPSRFSGGGSGTEFTLTISSLQPEDFATYYCLQHNSYPLTFGGGTKVEIKRTVAAPSVFIFPPSDEQLKSGTASVVCLLNNFYPREAKVQWKVDNALQSGNSQESVTEQDSKDSTYSLSSTLTLSKADYEKHKVYACEVTHQGLSSPVTKSFNKGKVLIL
modifications: S8 Heavy chain; Light chain
Q: B1 was tested. Which “% neutralisation” value ([1]; Fab 10 μg/ml) did it give?
A: 100%

Q: What about the “% neutralisation” value [2] of the same molecule?
A: greater than 90%

Q: What about the “Fab concentration for 50% neutralisation” value [3] of the same molecule?
A: less than 0.1 μg/ml

Q: And the “Fab concentration for 50% neutralisation” value [4]?
A: less than 0.1 μg/ml

Q: What about the neutralisation [5] of the same molecule?
A: poorly neutralised

Q: And the “% neutralisation” value [6]?
A: greater than 90%

Q: What about the “inhibition of gp120 binding of donor serum IgG” value [7] of the same molecule?
A: inhibited

Q: What about the “% neutralisation” value [8] of the same molecule?
A: greater than 90%

Q: And the “% neutralisation” value [9]?
A: 32%

Q: And the “Fab-treated mice with undetectable p24” value ([10]; co-culture day 7, 100 TCID50 HIV-1 Bal)?
A: 100%

Q: What about the “Fab-treated mice with undetectable p24” value ([10]; co-culture day 14, 100 TCID50 HIV-1 Bal) of the same molecule?
A: seven of eight

B2: Fab S20: human IgG1 anti-gp120 Fab; light chain SEQ ID 2, heavy chain SEQ ID 8 (antibody, listed as Homo sapiens)
heavy: LESGGGVVQPGRSLRLSCSASGFSFRDYAMHWVRQAPGKGLEWVAFIWFDGSNERYADSVKGRFTITRDNPKNTLYLQMNSLRVEDTAVYYCVRRGGSILTGFHLDYWGQGTLVTVSSASTKGPSVFPLAPSSKSTSGGTAALGCLVKDYFPEPVTVSWNSGALTSGVHTFPAVLQSSGLYSLSSVVTVPSSSLGTQTYICNVNHKPSNTKVDKRVEPKSCDKTS
light: ELTQSPSSLSASVGDRVTITCRASQGIRDDLGWYQQKPGKAPKRLIYAASNLQSGVPSRFSGGGSGTEFTLTISSLQPEDFATYYCLQHNSYPLTFGGGTKVEIKRTVAAPSVFIFPPSDEQLKSGTASVVCLLNNFYPREAKVQWKVDNALQSGNSQESVTEQDSKDSTYSLSSTLTLSKADYEKHKVYACEVTHQGLSSPVTKSFNKGKVLIL
modifications: S20 Heavy chain; Light chain
Q: With B2 as the molecule, how does the “% neutralisation” value ([1]; Fab 1 μg/ml) read?
A: 100%

B3: Fab S19: human IgG1 anti-gp120 Fab; light chain SEQ ID 2, heavy chain SEQ ID 6 (antibody, listed as Homo sapiens)
heavy: LESGGGVVQPGRSLRLSCAASGFSFSSHGMHWVRQAPGKGLEWVAFIWFDGSNERYADSVKGRFTITRDNPKNTLYLQMNSLRVEDTAVYYCVRRGGSILTGFHLDYWGQGTLVTVSSASTKGPSVFPLAPSSKSTSGGTAALGCLVKDYFPEPVTVSWNSGALTSGVHTFPAVLQSSGLYSLSSVVTVPSSSLGTQTYICNVNHKPSNTKVDKRVEPKSCDKTS
light: ELTQSPSSLSASVGDRVTITCRASQGIRDDLGWYQQKPGKAPKRLIYAASNLQSGVPSRFSGGGSGTEFTLTISSLQPEDFATYYCLQHNSYPLTFGGGTKVEIKRTVAAPSVFIFPPSDEQLKSGTASVVCLLNNFYPREAKVQWKVDNALQSGNSQESVTEQDSKDSTYSLSSTLTLSKADYEKHKVYACEVTHQGLSSPVTKSFNKGKVLIL
modifications: S19 Heavy chain; Light chain
Q: For B3, which “% neutralisation” value ([1]; Fab 20 μg/ml) is on record?
A: 92%
